Results taken from publication PMC2856455 (Journal of molecular biology, 2010).

Experiments:
[1] = target: T1, MDMX (Homo sapiens, UniProt O15151); assay: SPR-based competition binding assay, synthetic 24–108MDMX
T1 sequence (O15151 24-108): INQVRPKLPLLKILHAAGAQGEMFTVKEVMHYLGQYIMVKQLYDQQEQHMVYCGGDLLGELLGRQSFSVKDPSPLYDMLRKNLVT

[2] = target: MDM2 (Homo sapiens, UniProt Q00987); assay: SPR-based competition binding assay, synthetic 25–109MDM2
[3] = calculated binding free energy relative to PMI

TSFAEYWNLASP [L10A-PMI]
ΔΔG, PMI-MDMX [1, 3]: 2.28 kcal/mol | Kd ratio (kcal/mol), PMI-MDMX ([1]; relative to PMI): 50 kcal/mol | ΔΔG(kcal/mol), PMI-MDM2 [2, 3]: 3.28 kcal/mol | preference between MDM2 and MDMX ([2]; comparison of binding affinities for MDM2 and MDMX): higher binding affinity for MDMX than for MDM2 | difference in relative binding free energy, MDM2 versus MDMX ([2]; mutation more deleterious to MDM2 than to MDMX): 1.0 kcal/mol | Kd ratio, PMI-MDM2 ([2]; relative to PMI): 277
